Test results taken from patent US20260153518A1, “DIAGNOSIS OF IMMUNE-MEDIATED INFLAMMATORY DISEASES USING MMP12 AS INDICATOR, AND MEDICINE FOR TREATING IMMUNE-MEDIATED INFLAMMATORY DISEASES VIA MMP12 INHIBITION” (KEIO UNIVERSITY, priority 2022, published 2026).
Where no end group is shown, it is not given here.

Experiments:
h MMP12 = h MMP12 (Homo sapiens, UniProt P39900); test: Evaluation of cleavage of candidate peptides by MMP12 (UPLC); format: biochemical; details: for Number of cleavage peaks, Test: UPLC after incubation with h MMP12, 37° C.; for Number of cleavage peaks, Test / Cleavage rate (%) of each candidate peptide by MMP12: 16 hours; for Cleavage rate (%) of each candidate peptide by MMP12: activated h MMP12 2.0 ng/μL mixed 1:1 with 40 μM peptide, 37° C., UPLC peak area before/after, 440 nm; for cleavage rate by MMP12 (in words: low / medium / high) / cleavage site by MMP12: summary of Table 3
Experimental: The evaluation of cleavage of candidate peptides by MMP12 was performed as follows.
On the first day, h MMP12 was diluted to 50 μg/mL with an assay buffer. APMA was added to the h MMP12 solution to adjust the final concentration of APMA to 1 mM, and the solution was incubated at 37° C. for 24 hours to activate h MMP12.
On the second day, activated h MMP12 was diluted to 2 ng/μL (=40 nM) with an assay buffer The substrate (peptide) was diluted to 40 μM with an assay buffer. 50 μL of h MMP12 (2.0 ng/μL) and 50 μL of the substrate (peptide) were mixed and incubated at 37° C. for 16 hours. A blank was prepared by mixing equal volumes of an assay buffer and the substrate (peptide).
On the third day, 100 μL of acetonitrile was added to the mixture from the second day. After centrifugation for 10 minutes, the supernatant was collected, and 10 μL of the supernatant was analyzed using ultra high performance liquid chromatography (UPLC).
UPLC was performed under the conditions of measurement wavelength: 440 nm, flow rate: 0.4 mL/min, A: H2O with 0.1% TFA, B: CH3CN with 0.1% TFA, and elution conditions 10% B→70% B in 9.5 min, and as a result, it was confirmed that the two positive controls were cleaved by MMP12 (data is not shown).
For the candidate peptide Nos, 2, 4 to 7, 11, 15 to 17, 19, 20, and 22, the evaluation of cleavage by MMP12 was performed in the same manner as for the positive controls. Cleavage by MMP12 was confirmed for all the peptides tested. For Nos. 2 and 4 to 7, the cleavage sites were L-Q and L-R/K, but the cleavage rates were different. […] For Nos. 11, 15, 17, 20, and 22, the cleavage site was E-L, but the cleavage rates were different. The cleavage rate of No. 11 was high and the cleavage rate of No. 15 was low even though these candidate peptides have E-L-l. The cleavage rates of Nos. 17, 20, and 22, which have E-L-R, were high.

[1] = test system: SCG/ThpNkc mice (ANCA-associated vasculitis model mice); test: Therapeutic effects of MMP12 inhibitors on ANCA-associated vasculitis model mice; format: in vivo
Experimental: SCG/ThpNkc mice (see Proc Natl Acad Sci USA. 1993 Apr. 15; 90(8): 3413-7.) are ANCA-associated vasculitis model mice created by crossing and interbreeding two strains, MRL/Ipr and BXSB, and can be supplied from Laboratory Animal Resource Bank at the National Institute of Biomedical Innovation, Health and Nutrition (resource number: nbio133).
In this experiment, MMP408 (CAS No. 1258003-93-8), which is an MMP12 selective inhibitor, was administered to male SCG/ThpNkc mice, and the therapeutic effects of MMP408 were examined.
The SCG/ThpNkc mice were reared in cages with normal solid food and water. At weeks of age, it was confirmed that the mice had positive occult blood in their urine. From 11 weeks of age, MMP408 was administered via the intraperitoneal route at a dose of 100 μg twice a week. Urine analysis was performed at 15 and 20 weeks of age, and the mice were sacrificed at 20 weeks of age. The number of mice in an MMP408 non-administration group and the number of mice in an MMP408 administration group were n=25 and n=4, respectively.

Chain of h MMP12 (P39900 106-470): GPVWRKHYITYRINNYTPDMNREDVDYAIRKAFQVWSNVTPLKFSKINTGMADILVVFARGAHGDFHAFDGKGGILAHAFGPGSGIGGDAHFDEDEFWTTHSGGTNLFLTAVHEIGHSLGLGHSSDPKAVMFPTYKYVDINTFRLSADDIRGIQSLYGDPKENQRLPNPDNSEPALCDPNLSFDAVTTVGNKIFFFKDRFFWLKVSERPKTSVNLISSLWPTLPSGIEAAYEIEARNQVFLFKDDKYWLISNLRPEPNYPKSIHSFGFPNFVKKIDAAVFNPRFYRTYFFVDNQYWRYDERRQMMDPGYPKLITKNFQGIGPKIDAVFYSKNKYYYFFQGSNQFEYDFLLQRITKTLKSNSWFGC

Compound	Number of cleavage peaks, Test (h MMP12)	Cleavage rate (%) of each candidate peptide by MMP12 (h MMP12) [%]	cleavage rate by MMP12 (in words: low / medium / high) (h MMP12)	cleavage site by MMP12 (h MMP12)	urine occult blood ([1]; MMP408 administration group, week 20, FIG. 12 (n=2))	mice still alive at 20 weeks (survival curve) ([1]; male SCG/ThpNkc mice, MMP408 100 μg intraperitoneal twice a week from 11 weeks of age, n=4, log-rank test p=0.037 vs non-administration group (92% died by 20 weeks))
SLSFSTNLQKRL (not fully specified; also: 5-carboxyfluorescein label) [No. 04]	1	53.5	medium			
RQAFNEKIRVVHQL (not fully specified; also: 5-carboxyfluorescein label) [No. 15]	1	10.5	low	E-L		
STNLQESLRRKE (not fully specified; also: 5-carboxyfluorescein label) [No. 07]	2	70.4	medium to high			
ASVVTELRSQSLQT (not fully specified; also: 5-carboxyfluorescein label) [No. 20]	2	100.0	high	E-L		
PESSLRKRKRSR (not fully specified; also: 5-carboxyfluorescein label) [No. 16]	1	61.7				
DKVWQDYIKDMKEN [No. 02]	1	56.0	medium			
COC(=O)Nc1ccc2oc3cc(S(=O)(=O)N[C@@H](C(=O)O)C(C)C)ccc3c2c1 [MMP408]					improved	2 out of 4
APRIKKIVQKKLAG (not fully specified; also: 5-carboxyfluorescein label) [No. 19]	1	26.0				
LNVQRKAIHELIQV (not fully specified; also: 5-carboxyfluorescein label) [No. 11]	2	100.0	high	E-L		
PAAAVLRELRSVS (not fully specified; also: 5-carboxyfluorescein label) [No. 22]	3	100.0	high	E-L		
SRNLQERLRRKE (not fully specified; also: 5-carboxyfluorescein label) [No. 05]	1	38.5	medium to high			
SFSSSRNLQERL (not fully specified; also: 5-carboxyfluorescein label) [No. 06]	1	90.3	medium to high			
APIANELRSQSLQT (not fully specified; also: 5-carboxyfluorescein label) [No. 17]	1	98.6	high	E-L		
